Test results from patent publication US20170015742A1 (published 2017).
Numbering of substitutions follows the chain as printed.

B1: 4G8.3-LS-9E8.4 anti-VEGF-A/anti-PDGF-BB DVD-Ig (PR-1564013) (bispecific antibody, human IgG1, kappa, L234A L235A)
heavy: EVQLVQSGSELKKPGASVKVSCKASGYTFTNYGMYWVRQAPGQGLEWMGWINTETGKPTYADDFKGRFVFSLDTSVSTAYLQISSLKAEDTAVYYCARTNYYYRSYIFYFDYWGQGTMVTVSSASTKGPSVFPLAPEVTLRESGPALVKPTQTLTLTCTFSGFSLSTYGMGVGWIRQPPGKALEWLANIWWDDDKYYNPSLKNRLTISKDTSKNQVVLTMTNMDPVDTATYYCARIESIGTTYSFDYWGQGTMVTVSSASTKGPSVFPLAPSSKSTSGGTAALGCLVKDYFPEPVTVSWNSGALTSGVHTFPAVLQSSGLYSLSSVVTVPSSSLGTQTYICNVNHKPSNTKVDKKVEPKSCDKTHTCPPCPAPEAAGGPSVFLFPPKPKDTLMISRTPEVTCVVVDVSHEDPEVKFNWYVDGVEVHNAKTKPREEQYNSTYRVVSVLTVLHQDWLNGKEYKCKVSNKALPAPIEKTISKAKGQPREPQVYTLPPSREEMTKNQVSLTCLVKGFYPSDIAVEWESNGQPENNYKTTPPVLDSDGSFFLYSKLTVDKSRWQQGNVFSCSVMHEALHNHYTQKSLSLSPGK
light: DTVLTQSPATLSLSPGERATLSCRASESVSTHMHWYQQKPGQAPRLLIYGASNLESGVPARFSGSGSGTDFTLTISSLEPEDFAVYFCQQSWNDPFTFGQGTKLEIKRTVAAPEFVLTQSPGTLSLSPGERATLSCERSSGDIGDSYVSWYQQKPGQAPRLVIYADDQRPSGIPDRFSGSGSGTDFTLTISRLEPEDFAVYYCQSYDINIDIVFGGGTKVEIKGTVAAPSVFIFPPSDEQLKSGTASVVCLLNNFYPREAKVQWKVDNALQSGNSQESVTEQDSKDSTYSLSSTLTLSKADYEKHKVYACEVTHQGLSSPVTKSFNRGEC
B2: 4G8.3-GS-9E8.4 anti-VEGF-A/anti-PDGF-BB DVD-Ig (PR-1564010) (bispecific antibody, human IgG1, kappa, L234A L235A)
heavy: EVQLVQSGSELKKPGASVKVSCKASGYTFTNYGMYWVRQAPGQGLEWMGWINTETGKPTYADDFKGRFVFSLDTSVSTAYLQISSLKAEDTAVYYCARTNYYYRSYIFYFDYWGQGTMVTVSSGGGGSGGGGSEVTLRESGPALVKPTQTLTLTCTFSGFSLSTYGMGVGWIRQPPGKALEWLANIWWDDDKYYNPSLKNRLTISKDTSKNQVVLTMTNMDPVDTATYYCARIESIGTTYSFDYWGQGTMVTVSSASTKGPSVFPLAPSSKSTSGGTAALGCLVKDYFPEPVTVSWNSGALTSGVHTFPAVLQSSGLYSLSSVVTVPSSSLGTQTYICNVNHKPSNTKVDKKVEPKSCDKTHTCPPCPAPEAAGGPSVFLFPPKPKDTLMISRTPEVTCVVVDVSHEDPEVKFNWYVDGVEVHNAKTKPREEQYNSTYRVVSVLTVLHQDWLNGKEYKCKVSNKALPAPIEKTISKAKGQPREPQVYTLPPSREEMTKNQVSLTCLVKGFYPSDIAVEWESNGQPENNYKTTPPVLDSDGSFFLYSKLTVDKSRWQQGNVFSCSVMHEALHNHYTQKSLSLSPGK
light: DTVLTQSPATLSLSPGERATLSCRASESVSTHMHWYQQKPGQAPRLLIYGASNLESGVPARFSGSGSGTDFTLTISSLEPEDFAVYFCQQSWNDPFTFGQGTKLEIKRGGSGGGGSGEFVLTQSPGTLSLSPGERATLSCERSSGDIGDSYVSWYQQKPGQAPRLVIYADDQRPSGIPDRFSGSGSGTDFTLTISRLEPEDFAVYYCQSYDINIDIVFGGGTKVEIKGTVAAPSVFIFPPSDEQLKSGTASVVCLLNNFYPREAKVQWKVDNALQSGNSQESVTEQDSKDSTYSLSSTLTLSKADYEKHKVYACEVTHQGLSSPVTKSFNRGEC
B3: 4G8.3-SL-9E8.4 anti-VEGF-A/anti-PDGF-BB DVD-Ig (PR-1564012) (bispecific antibody, human IgG1, kappa, L234A L235A)
heavy: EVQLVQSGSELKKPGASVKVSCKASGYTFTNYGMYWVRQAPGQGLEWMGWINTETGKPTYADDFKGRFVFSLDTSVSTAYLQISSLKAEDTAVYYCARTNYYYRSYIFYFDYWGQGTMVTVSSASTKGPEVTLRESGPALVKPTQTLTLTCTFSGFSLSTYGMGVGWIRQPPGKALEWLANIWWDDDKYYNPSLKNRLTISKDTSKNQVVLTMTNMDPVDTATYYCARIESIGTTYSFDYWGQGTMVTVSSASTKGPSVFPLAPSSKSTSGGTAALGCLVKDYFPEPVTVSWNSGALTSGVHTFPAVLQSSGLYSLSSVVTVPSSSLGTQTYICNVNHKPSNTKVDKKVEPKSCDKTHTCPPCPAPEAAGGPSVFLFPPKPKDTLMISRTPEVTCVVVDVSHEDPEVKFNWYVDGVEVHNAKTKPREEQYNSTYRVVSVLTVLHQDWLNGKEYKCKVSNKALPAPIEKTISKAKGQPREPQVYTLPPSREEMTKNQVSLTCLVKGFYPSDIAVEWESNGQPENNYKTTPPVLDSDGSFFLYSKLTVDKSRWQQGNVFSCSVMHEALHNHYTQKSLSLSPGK
light: DTVLTQSPATLSLSPGERATLSCRASESVSTHMHWYQQKPGQAPRLLIYGASNLESGVPARFSGSGSGTDFTLTISSLEPEDFAVYFCQQSWNDPFTFGQGTKLEIKRTVAAPSVFIFPPEFVLTQSPGTLSLSPGERATLSCERSSGDIGDSYVSWYQQKPGQAPRLVIYADDQRPSGIPDRFSGSGSGTDFTLTISRLEPEDFAVYYCQSYDINIDIVFGGGTKVEIKGTVAAPSVFIFPPSDEQLKSGTASVVCLLNNFYPREAKVQWKVDNALQSGNSQESVTEQDSKDSTYSLSSTLTLSKADYEKHKVYACEVTHQGLSSPVTKSFNRGEC
B4: 9E8.4-GS-4G8.3 DVD-Ig (PR-1563988) (bispecific antibody, human IgG1, kappa, L234A L235A)
heavy: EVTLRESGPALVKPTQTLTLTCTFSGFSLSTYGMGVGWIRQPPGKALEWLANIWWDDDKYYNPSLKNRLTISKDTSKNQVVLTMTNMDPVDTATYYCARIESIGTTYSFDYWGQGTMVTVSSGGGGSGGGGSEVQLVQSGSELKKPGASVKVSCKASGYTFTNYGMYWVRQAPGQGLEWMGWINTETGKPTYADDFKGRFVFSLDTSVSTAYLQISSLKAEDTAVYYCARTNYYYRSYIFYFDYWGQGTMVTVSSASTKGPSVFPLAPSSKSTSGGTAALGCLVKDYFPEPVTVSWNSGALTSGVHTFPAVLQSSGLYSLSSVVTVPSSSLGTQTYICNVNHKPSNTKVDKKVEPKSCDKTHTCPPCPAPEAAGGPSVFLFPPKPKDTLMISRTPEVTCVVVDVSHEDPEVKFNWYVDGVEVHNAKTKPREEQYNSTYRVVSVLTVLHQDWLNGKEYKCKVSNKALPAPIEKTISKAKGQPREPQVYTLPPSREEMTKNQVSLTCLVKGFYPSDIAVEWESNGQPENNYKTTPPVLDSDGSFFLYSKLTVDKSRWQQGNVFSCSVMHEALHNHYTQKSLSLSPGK
light: EFVLTQSPGTLSLSPGERATLSCERSSGDIGDSYVSWYQQKPGQAPRLVIYADDQRPSGIPDRFSGSGSGTDFTLTISRLEPEDFAVYYCQSYDINIDIVFGGGTKVEIKGGGSGGGGSGDTVLTQSPATLSLSPGERATLSCRASESVSTHMHWYQQKPGQAPRLLIYGASNLESGVPARFSGSGSGTDFTLTISSLEPEDFAVYFCQQSWNDPFTFGQGTKLEIKRTVAAPSVFIFPPSDEQLKSGTASVVCLLNNFYPREAKVQWKVDNALQSGNSQESVTEQDSKDSTYSLSSTLTLSKADYEKHKVYACEVTHQGLSSPVTKSFNRGEC
B5: BEW-6C2-C8 (antibody, IgG2b, V domains shown)
VH: EVQLVESGGGLVQPGSSLKLSCAASGFTFSYYGMHWIRQAPKKGLEWMALIYYDSSKMYYADSVKGRFTISRDNSKNTLYLEMNSLRSEDTAMYYCAAGGTAPVYWGQGVMVTVSS
VL: NIQLTQSPSLLSASVGDRVTLSCKGSQNIANYLAWYQQKLGEAPKLLIYNTDSLQTGIPSRFSGSGSGTDYTLTISSLQPEDVATYFCYQSNNGYTFGAGTKLELR
notes: Rat hybridoma antibody, isotype IgG2b/kappa
B6: BEW-8E6-E4 (antibody, IgG2a, V domains shown)
VH: QIQLVQSGPELKKPGESVKISCKASGYTFTDYAMHWVKQAPGKVLKWMGWINTFTGKPTYIDDFKGRFVFSLEASASTANLQISDLKNEDTATYFCARGNYYSGYWYFDFWGPGTMVTMSS
VL: DIQMTQSPASLSASLGETISIECRASEDISSNLAWYQQKSGKSPQLLIFAANRLQDGVPSRFSGSGSGTQFSLKISGMQPEDEGDYFCLQGSKFYTFGAGTKLELK
notes: Rat hybridoma antibody, isotype IgG2a/kappa
B7: BEW-1E3-D6 (antibody, IgG2b, V domains shown)
VH: QIQLVQSGPELKKPGESVKISCKASGYPFTNSGMYWVKQAPGQGLQYMGWINTEAGKPTYADDFKGRFVFFLETSASTAYLQINNLKNEDMATYFCARWGYISDNSYGWFDYWGQGTLVTVSS
VL: DTVLTQSPALAVSPGERVSISCRASEGVYSYMHWYQQNPGQQPKLLIYKASNLASGVPARFSGSGSGTDFTLTIDPVEADDTATYFCHQNWNDPLTFGSGTKLEIK
notes: as for B5
B8: BEW-9E3-B9 (antibody, IgG2a, V domains shown)
VH: QIQLVQSGPELKKPGESVKISCKASGYTFTNYGMYWVKQAPGQGLQYMGWINTETGKPTYADDFKGRFVFFLETSASTAFLQINNLKNEDMATYFCARPSDYYDGFWFPYWGQGALVTVSS
VL: B7 VL with V3I, V18I, Y29N, H88Q, N90S
notes: as for B6
B9: BEW-5C3-E7 (antibody, IgG2b, V domains shown)
VH: QIQLVQSGPELKKPGESVKISCKASGYTFTNYGVYWVKQAPGQGLQYMGWINTETGKPTYADDFKGRFVFFLETSTNTAYLQINNLKNEDMATFFCARARQLDWFVYWGQGTLVTVSS
VL: DTVLTQSPALTVSPGERVSISCRARESLTTSLCWFQQKPGQQPKLLIYGASKLESGVPARFSGSGSGTDFTLTIDPVEADDTATYFCQQSWYDPPTFGGGTKLELK
notes: as for B5
B10: BEW-10H2-B9 (antibody, IgG2b, V domains shown)
VH: QIQLVQSGPELKKPGESVKISCKASGYSFTNFGLYWVKQAPGQGLQYMGWIDTETGKPTYADDFRGRFVFFLETSASTAYLQINNLKNEDMATYFCARVYGYPSWYFDFWGPGTMVTVSS
VL: DIQMTQSPASLSTSLEEIVTITCQASQDIDNYLSWYQQKPGKSPQLLIHSATSLADGVPSRFSGSRSGTQFSLKIHRLQVEDTGIYYCLQHFFPPWTFGGGTKLELK
notes: as for B5
B11: BEW-9A8-E2 (antibody, IgG2a, V domains shown)
VH: QIQLVQSGPELKKPGESVKISCKASGYTFTNYGMYWVKQAPGQGLQYMGWINTETGKPIYADDFKGRFVFFLETSASTAYLQINNLKNEDMATFFCARVDYDGSFWFAYWGQGTLVTVSS
VL: DTVLTQSPALAVSPGERVSISCRASESVSTVIHWYQQKPGQQPKLLIHGASNLESGVPARFSGSGSGTDFTLTIDPVEADDTATYFCQQHWNDPPTFGAGTKLEMK
notes: as for B6
B12: hBEW-1E3.1 (antibody, V domains shown)
VH: EIQLVQSGSELKKPGASVKVSCKASGYPFTNSGMYWVKQAPGQGLEYMGWINTEAGKPTYADDFKGRFVFSLDTSVSTAYLQISSLKAEDTAVYFCARWGYISDNSYGWFDYWGQGTLVTVSS
VL: ETVLTQSPATLSLSPGERATLSCRASEGVYSYMHWYQQKPGQQPRLLIYKASNLASGVPARFSGSGSGTDFTLTISSLEPEDFAVYFCHQNWNDPLTFGQGTKLEIK
notes: Humanized IgG
B13: hBEW-1E3.4 (antibody, V domains shown)
VH: B12 VH
VL: ATQLTQSPSSLSASVGDRVTISCRASEGVYSYMHWYQQKPGKQPKLLIYKASNLASGVPSRFSGSGSGTDFTLTISSLQPEDFATYFCHQNWNDPLTFGQGTKLEIK
notes: Humanized IgG
B14: hBEW-1E3.5 (antibody, V domains shown)
VH: B12 VH with S9A, L11V, V69T, S71T, V76T, Q82E, S84R, K87R, A88S, E89D
VL: B13 VL
notes: Humanized IgG
B15: hBEW-1E3.2 (antibody, V domains shown)
VH: B12 VH with S9A, L11V, V69T, S71T, V76T, Q82E, S84R, K87R, A88S, E89D
VL: B12 VL
notes: Humanized IgG

target: recombinant murine PDGF-BB (mouse, UniProt P31240 82-190); assay: cell-based or functional assay
Sequence (P31240 82-190 limits assumed): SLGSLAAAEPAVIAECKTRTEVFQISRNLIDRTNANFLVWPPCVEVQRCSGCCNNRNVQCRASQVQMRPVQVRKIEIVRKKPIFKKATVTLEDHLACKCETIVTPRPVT

Binder	Potency IC50 (nM) mPDGF-BB (NIH-3T3 proliferation) [nM]
B1	0.11
B2	0.44
B3	0.29

target: recombinant rat PDGF-BB (rat, UniProt Q05028 74-182); assay: cell-based or functional assay
Sequence (Q05028 74-182 limits assumed): as the sequence (P31240 82-190 limits assumed) above, with I83V, I102V counted along it

Binder	Potency IC50 (nM) ratPDGF-BB (NIH-3T3 proliferation) [nM]
B1	0.21
B2	1.36
B3	0.65

target: recombinant human VEGF165 (human, UniProt P15692 207-395); assay: cell-based or functional assay
Sequence (P15692 other isoform, or with tags, fused parts or gaps limits assumed): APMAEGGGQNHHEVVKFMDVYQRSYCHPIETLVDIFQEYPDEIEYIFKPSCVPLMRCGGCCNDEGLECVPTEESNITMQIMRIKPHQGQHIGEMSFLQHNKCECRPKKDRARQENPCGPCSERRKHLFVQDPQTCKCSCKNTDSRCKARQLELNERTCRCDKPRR

Binder	HMVEC-d hVEGF165 Potency IC50 [nM]
B4	2.64

target: recombinant human PDGF-BB (human, UniProt P01127 82-190); assay: cell-based or functional assay
Sequence (P01127 82-190 limits assumed): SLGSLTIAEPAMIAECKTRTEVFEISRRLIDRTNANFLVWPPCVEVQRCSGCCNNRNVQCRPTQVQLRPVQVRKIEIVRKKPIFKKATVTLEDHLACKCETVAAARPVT

Binder	NIH-3T3 hPDGF-BB Potency IC50 [nM]
B4	0.076

target: T1, Human VEGF-A 165 (human, UniProt P15692 207-395); assay: receptor competition ELISA, hVEGF165 binding to coated hVEGF-R2-Fc
T1 construct: Recombinant; also called huVEGF-A165; hVEGF165
Procedure: To identify molecules that could block the binding of hVEGF₁₆₅ to the hVEGF-R2 (KDR/Flk-1) receptor, a competition ELISA was performed. […] Plates were then washed four times with wash buffer (TBS, 0.05% Tween-20) and blocked with Superblock blocking buffer (Thermo Scientific, cat#37535). […] The pre-incubated sample/hVEGF₁₆₅ complex was added to the coated plate at 50 μL in duplicate and incubated for 30 minutes at 25° C. with shaking. Following incubation, plates were washed four times with wash buffer. Streptavidin-polyHRP-40 (Fitzgerald cal#65r-s104phrp) was diluted in assay diluent (10% Superblock containing 0.05% surfactamps) and added to plates (50 μL) for 45 minutes at 25° C. with shaking. Plates were washed four times with wash buffer and developed with the addition of Enhanced K-blue TMB substrate (Neogen cat#308177). The reaction was stopped with 2N sulfuric acid (VWR, cat# BDH3500-1) and the absorbance was read at 450 nm-570 nm. A decrease in observed optical density indicates the test molecule is blocking the hVEGF₁₆₅ binding to the hVEGF-R2-Fc. Data was analyzed using Softmax Pro 4.8 software and IC₅₀ values calculated using a sigmoidal dose response (variable slope) fit in GraphPad Prism 5.
Anti-VEGF-A antibodies derived from rat hybridomas were characterized for binding, function and cross-reactivity in a panel of assays. Supernatants were tested for the ability to bind hVEGF₁₆₅ (Example 1.3) and block binding of hVEGF₁₆₅ to hVEGFR2 in a competition ELISA format (Example 1.4).
T1 sequence (P15692 other isoform, or with tags, fused parts or gaps limits assumed): as the sequence (P15692 other isoform, or with tags, fused parts or gaps limits assumed) above

Binder	IC50 [nM]
B5	0.197
B6	0.342
B7	0.62
B8	0.124
B9	0.156
B10	0.42
B11	0.249

target: T2, Human VEGF-A 165 (human, UniProt P15692 207-395); assay: cell-based or functional assay
T2 sequence (P15692 other isoform, or with tags, fused parts or gaps limits assumed): as above

Binder	hVEGF165 IC50 (nM), HMVEC-d proliferation [nM]
B12	0.138
B13	0.212
B14	0.184
B15	0.161

target: T2, Human VEGF-A 165; assay: SPR (Biacore), antibody captured via anti-human Fc, antigen in solution
Procedure: For example, approximately 9000 RU of goat anti-human Fc specific polyclonal antibody (Thermo Fisher Scientific Inc., Rockford, Ill.) diluted in 10 mM sodium acetate (pH 4.5) is directly immobilized across a CM5 research grade biosensor chip using a standard amine coupling kit according to manufacturer's instructions and procedures at 25 μg/ml. Unreacted moieties on the biosensor surface were blocked with ethanolamine. For kinetic analysis, rate equations derived from the 1:1 Langmuir binding model were fitted simultaneously to multiple antigen injections (using global fit analysis) with the use of Scrubber 2 (BioLogic Software), Biacore Biaevaluation 4.0.1 software or Biacore T100 Evaluation software. Purified antibodies or DVD-Ig molecules were diluted in running buffer for capture across goat anti-human Fc reaction surfaces. Antibodies or DVD-Ig molecules to be captured as a ligand (1 μg/ml) were injected over reaction matrices at a flow rate of 10 μl/minute. During the assay, all measurements were referenced against the capture surface alone (i.e., with no captured antibody or DVD-Ig molecule). […] The equilibrium dissociation constant KD (M) of the reaction between antibodies and the target antigen was then calculated from the kinetic rate constants by the following formula: KD=Koff/Kₒₙ. Binding was recorded as a function of time and kinetic rate constants were calculated.

Binder	Kd [nM]	kon [M⁻¹ s⁻¹]
B12	0.0077	1.1e+07
B13	0.0097	9.8e+06
B14	0.01	1e+07
B15	0.0092	1.1e+07
